Assay results as given in patent US7282556 (EMORY UNIVERSITY, dated 2007).
Bridges are numbered along the chain shown (N, C = ends). Where no end group is shown, it is not given here.

Experiments:
[1] = target: T1, SIRPα1-GST: extracellular domain of SIRPα1 fused to GST (UniProt P78324 31-373); experiment: direct binding of synthetic peptide
T1 construct: extracellular domain; Produced in 293E cells as in Seiffert et al; also called SIRPα-GST; SIRP-GST; not shown: glutathione S-transferase (GST)

C5/D5 Fab = target: T2, C5/D5 Fab; experiment: competition ELISA: C5/D5 Fab (1 µg/ml) on coated purified CD47 with increasing peptide
T2 construct: Prepared by papain digestion of C5/D5; also called C5/D5 Fab fragment
Method: Figure 5: FIG. 5 is a graph that illustrates the effect of synthetic peptide C5/D5.1 ([…]) (SEQ. ID NO: 2) and control peptide C5/D5.4 ([…]) (SEQ. ID NO: 34), C5/D5.11 ([…]) (SEQ. ID NO: 36) and C5/D5.12 ([…]) (SEQ. ID NO: 6) on binding of C5/D5 Fab to CD47. CD47 was purified from human PMN or RBC as previously described (Liu, et al., Journal of Biological Chemistry, 277(12): 10028-36, 2002). The experiments were performed by coating microtiter plates with purified CD47 (in 1% octylglucoside containing buffer, used as 1:50 dilution) for 2 hour (hr). After blocking, C5/D5 Fab (1 µg/ml) was added without or with increasing amount of peptides. C5/D5 Fab binding was detected by a peroxidase conjugated goat anti-mouse secondary antibody. The data represent the mean and the standard deviation of triplicate wells.
To confirm that peptide C5/D5.1 simulates the natural epitope of CD47 recognized by mAb C5/D5, experiments were performed to test if this peptide can compete with CD47 in binding to C5/D5. Purified human CD47 from PMN and RBC was used to coat microtiter plates followed by incubation with C5/D5 Fab (1 μg/ml) either in the absence or presence of increasing amount C5/D5.1 or other control peptides. […] In contrast, control peptides, including C5/D5.11 (SEQ ID NO:36) and C5/D5.12 (SEQ ID NO:6) had no inhibition at concentrations up to 10 mM (FIG. 5). […]

[2] = target: T1, SIRPα1-GST: extracellular domain of …; experiment: plate binding assay, JAM-AP and SIRPα-GST

T1 sequence (P78324 31-373): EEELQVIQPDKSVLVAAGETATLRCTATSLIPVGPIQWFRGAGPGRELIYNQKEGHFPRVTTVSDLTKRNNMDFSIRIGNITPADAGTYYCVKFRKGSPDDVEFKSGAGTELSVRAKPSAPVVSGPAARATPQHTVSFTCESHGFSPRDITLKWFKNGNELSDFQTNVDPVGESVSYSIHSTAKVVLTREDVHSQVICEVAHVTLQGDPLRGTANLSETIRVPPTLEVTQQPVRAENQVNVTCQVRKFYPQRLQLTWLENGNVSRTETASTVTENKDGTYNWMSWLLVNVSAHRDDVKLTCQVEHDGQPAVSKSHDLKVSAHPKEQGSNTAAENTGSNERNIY

Row | binding result [1] | Binder | other results
1 | no binding | EVTELTREG [linear CD47 peptide comprising EVTELTREG (aa115-123 of SEQ ID NO: 9)] | 
2 |  | CERVIGTGWVRC (disulfide 1-12 (inferred)) [synthetic peptide C5/D5.1 (CERVIGTGWVRC)] | IC50 (C5/D5 Fab): 3.8 mM
3 | no binding | SSAKIEVSQLLK [linear CD47 peptide comprising SSAKIEVSQLLK (aa82-93 of SEQ ID NO: 9)] | 
4 |  | JAM-AP: extracellular domain of junctional adhesion molecule (JAM) fused to alkaline phosphatase (other, UniProt Q9Y624 28-238, looked up, extracellular domain; Control AP fusion protein; not shown: alkaline phosphatase (as in CD47-AP)) SVTVHSSEPEVRIPENNPVKLSCAYSGFSSPRVEWKFDQGDTTRLVCYNNKITASYEDRVTFLPTGITFKSVTREDTGTYTCMVSEEGGNSYGEVKVKLIVLVPPSKPTVNIPSSATIGNRAVLTCSEQDGSPPSEYTWFKDGIVMPTNPKSTRAFSNSSYVLNPTTGELVFDPLSASDTGEYSCEARNGYGTPMTSNAVRMEAVERNVGV | binding result [2]: no binding
